Experiment: label from the status in PepcDB records
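Also: failed if final PepcDB status was selected cloned or expressed and not failed if soluble or beyond.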

| Sequence | protein production |
| --- | --- |
| MGEEAALDSFVKLEETLGEDEPCTARIIAPSSRAVLQSPTPPLPLKPHFLTNFPKYWSRPYLQAVPLHCQWERIPELVKQLSAKLIANDDMAELLLGESKLEQHLKEKPLRQGASPRGPRPQLTEVRKHLTAALDRGNLKSEFLQESNLVMAKLNYVEGDYKEALNIYARVGLDDLPLMAVPPYRLRMIAEAYATKGLCLEKLPVSSSTSNLHVDREQDVITCYEKAGDIALLYLQEIERVILTNIQNRSPKPGPAPHDQELGFFLETGLQRAHVLYFKNGNLTRGVGRFRELLRAVETRTTQNLRMTIARQLAEILLRGMCEQSYWNPLEEPPCQSPLDDPLRKGANTKTYTLPRRARVYSGENIFCPQENTEEALLLLLISESMANRDAVLSRIPEHKSDRLISLQSASVVYDLLTIALGRRGQYEMLSECLERAMKFAFEEFHLWYQFALSLMAAGKSARAVKVLKECIRLKPDDATIPLLAAKLCVGSLHWLEEAEKFAKTVVDVGEKTSEFKAKGYLALGLTYSLQATDASLRGMQEVLQRKALLALQRAHSLSPTDHQAAFYLALQLAISRQIPEALGYVRQALQLQGDDANSLHLLALLLSAQKHHHDALNIIDMALSEYPENFILLFSKVKLESLCRGPDEALLTCKHMLQIWKSCYNLTNPSDSGRGSSLLDRTIADRRQLNTITLPDFSDPETGSVHATSVAASRVEQALSEVASSLQSSAPKQGPLHPWMTLAQIWLHAAEVYIGIGKPAEATACTQEAANLFPMSHNVLYMRGQVAELRGNFDEARRWYEEALSISPTHVKSMQRLALVLHQLGRYSLAEKILRDAVQVNSTAHEVWNGLGEVLQAQGNDAAATECFLTALELEASSPAVPFTVIPRVL | failed |
| MKPSVSITGEQEAHKVAAIFETETDANGVARVLSQETSLDHEQVIVVSPQDQHPGEELEPENQGIWQTLVRSHLWLGIGGAVAGFIVFLILSAIGVGFIAQNGVVAAAVLAALGLILGLLVAGGVTLRPDHTPYVAKAQSALKEGKYVLTVHASSSEQLKEATTVLKNRNVRLVRTI | failed |
| MNKIQVLDPVTIDKIAAGEVIERPASVVKELVENAIDAGATAIVTEIEEGGISMIRIADNGCGMDASDVPNAFLRHSTSKIRTVEDLVHIGSLGFRGEALSSIAAVSQVEMITKTKDQVLGTRYRIAGGKEEELDETGARDGTTFLIRQLFYNTPARRKFLKTPMTEASHVGDLLTRMALSHPEISFQFINNGQSKLHTSGNGNLKDVIYHVYGREIAANLLAADYESPGLKIRGFLGKPLISRGNRNFENYFINGRYVKSSIISKAIEDAYKDFTMQHKYPFVVLHIEIDGEHVDVNVHPTKMELRFNNQQEVYNSIYAAVDHGLHAEELIPHVEVDAPKAAAPMKQEGGAPHAAQKKDNPVVPDRTTSVQPAPSAKKSVPAPEERTLDYFMQKMKERVAAYHAQQNQEAPKKAPDVKVSAQPSEDRREAPSDRVCETPEYAAQQLNLFEENLVERKVQAEYKIIGQVFETYWLVEFNDSLYIIDQHAAHERVLYEKTLKSMKTREFTSQFISPPIVLDLSMQEAELLNQYMDQFTRIGFEIEEFGQESYAVRAVPGNLFGIAKKDLLLQMLDGLSDEVSRNLSPDMIDEKVASMSCKAAVKGNMKLSATEVDSLIGELLTLENPYHCPHGRPTIIAMTKRELEKKFKRIV | failed |
| MNGDSKPYPLIVQQVMLFTTHPAHGVKAGMAKALHMIHAGRKVLVFIALLVSASLAMADVAIPPLKARVTDLTGTLSANEATQLEQKLAAFEARKGSQIAVLIVSTTQPETIEQYSIRVVDAWKLGRKGIDDGVLLLVAKQDRTVRVEVGYGLEGVLPDAVAKRITDEIIVPEFRQGRFAAGINAGVDRIIGVIEGEPLPPPPARSARGGDSSAAADILVNNIIFVFILLFIAAKVFQSIFGRFLGATLLSTAAAIIVWLVFASIFLALIAAAFAFFISLFGHAGSGIYRGGRGWPGGFGGYGGWGGRGGPGGFGGGGGFGGGGGGFGGGGASGRW | failed |
| MHTQEALFVRLALDAWNTQSSRTDKLIQSLSNEALAVETAPGRNSGTYLLGHLTAVHDAMLPLLELGDTLYPQLAPVFIQNPDKSGLEKPEINDLRLYWSLVQERLANQFNQLQPADWFNKHAAISREDFLKEPHRNKLSVLINRTNHMAYHLGQLAYLKK | not failed |
| MSDAPTSPRFSAATSTRLLDHAQLEALCADYDGFLLDLWGVVMDGTEAFPGALAWLARRHAEGRPVWFLSNSSSSVAEMSAGLERLGIRRDWFAGITTSGQLTIDALLQTAEYRRGGIYLAGVGLAQQSWPAEIRERFVEDIAQAALIVGVGSFPQDELEQRFAPLRGATDLPFLCANPDRVVVSGGRTVYGAGMLAELFSEEGGQVSWYGKPDPAAFRIAQRQLEARGARHILFVGDSLVTDVPGALAARIDTLWLGATGIHREALGAEFNGALDEERVRSLLHGYPIRPHFAAPGLV | failed |
| METYLEIETLIKRIFNSFRHEVEAVLDKRLSGSEYRVLSLISSGLTKTSDLAKTLDVSASHITAITDTLVEEKLITRHRSEVDRRIIELKLTSNAEEFVKEIDKKKKEMIVKRFAVFSEYEQAEFRKLLKKLADGSQSNK | failed |
| MNKWLDLILKIHVHPFLWIIAALGLLTGHMKALLCLLLIVLIHELGHAALAVFFSWRIKRVFLLPFGGTVEVEEHGNRPLKEEFAVIIAGPLQHIWLQFAAWMLAEVSVIHQHTFELFTFYNLSILFVNLLPIWPLDGGKLLFLLFSKQLPFQKAHRLNLKTSLCFCLLLGCWVLFVIPLQISAWVLFVFLAVSLFEEYRQRHYIHVRFLLERYYGKNRELEKLLPLTVKAEDKVYHVMAEFKRGCKHPIIIEKSGQKLSQLDENEVLHAYFADKRTNSSMEELLLPY | failed |
| MLRVFHFYGMLRLPRSGIEQSLKGERCTVSTQIRILPENLTNKIAAGEVVERPASVVKELVENSLDAGCRDIIVEIEAGGRRLIRVTDDGSGMSREDALLSLERHATSKIASDDDLFSLCTLGFRGEALPSIASVSRFSLATRQRGAIEGTEIYAEGGRIKEVKACGMAEGTVITVRNLFFNTPARLKFMKSAETEAGHVGDLLTRLAISRPEVRFTYVNDGKTVFRALNGTMEERVAALLGRTIAGALYPLDSTVEGVTVRGLVARPDVSRSAAGHLYTFINGRFIRDRVVQHAVLQAYRNFLERGRYPVVVLFIQVPAGDVDVNVHPTKHEVRFRQQGVVHDVIQGVIEEALRPTPWLRKESQSTVSSPPPERREPATSSERVAEVRELLVNYRPSPAPSRPFFQPLPAVVPAPDQSAEEPDRPMDRGYFSRLAIIGQFHASYILCQDGSDLVIIDQHAAHERVAFERLKAQFAAGGVEGQGLLFPDTLELSHREVAELREHGEELRRIGFDLDEFGGTTWVVKGVPRLLAGKDYLRILRDTLEEFQAVGANRSVADAVEEILTRIACHSVVRGEHPLTTAQIEALFAQMDATDYSTNCPHGRPVLQRLTLAEVERMFKR | failed |
| IHFTTEVITSRIEPANRYVAEKLRITPGQDILYLERLRSIGDEKAMLIENRINIELCPGIVEIDFNQHNLFPTIESLSKRKIRYSESRYAARLIGNERGHFLDISEDAPVLHLEQLVFFSRELPVEFGNVWLKG | failed |
| MGVRLAVRCFVVDGVLIDTGAKSMENEFTSFFQQQDIDQVVITHFHEDHTGCAAFLQRSMGLPIYMNEPMIEYCRQKADYPLYRKIFWGKRDPFAAKPIGATFSSRNATWDVIPTPGHAIDHVVFLNRETGQLFSGDLYCQEKTKVILREEDIPTIIASLQHVLTYDFGDVFCAHAGYLPLEHHHHHH | failed |
| MSNANQKITTFLMFEGKAEEAMNFYTSLFDQSEIVSISRYDENGPGKEGTVIHATFTLNGQEFMCIDSYVNHNFTFTPAMSLYVTCETEEEIDTVFHKLAQDGAILMPLGSYPFSKKFGWLNDKYGVSWQLTLAE | not failed |
| MGSVVHAEITEIKPFELRVNFGNSFRGRIHITEVLVNDASTSDEPFAKFRVGQSISARVVAKPCHTDIKKTQLWELSVKP | not failed |
| MRASKASADESLNVFPVPADSPGSPIAGANGVPKEISLPGEARPFHLANSAFWPYVLLFVSSLTLSGCAGMVDMVRDVTRSLADIDVSGITDLFGSGEVQMSPEQIAQLEVIPSTRPGWEASVEESPAAVFLPVFGDGAVYAGGPDGRLVRFDPASGKASGVIDTKHPLAGGIGTGDGMLLVGTFKGEVLAFDEKSGKPKWTANLSTEVLSPPHAGMGVVVVRTGDGRIYGLDSESGKRKWVYQGATPSLTVRSFAGALIADDRVYAGFAGGRLVALNLSNGSLVWEAMVSRPRGATELERISDVTSLPVLDEQQVCAVAYQGRIACFDITAGNQIWTRDVSSNAGLAMDDNYVYVSENRGGIVAYDKRDGTSIWAQDLLNGLKLSAPLVHGARIVVGDSQGYVNFIRKDNGAIIARSGTDESAITARPISLPNGIAVQTRKGGVFAFGA | failed |
| LTGFQNYLNSIIDSMPSALIALDEQLYVTQWNQEASALSGTRLDEALNQPIFLAFEPLKPFLPQLKETVEQHTVTKVERVTWFKDEEPKHYALTFYPLMGGAGRGVVIRIDDITQRLSLEEMMVQSEKMLSVGGLAAGMAHEINNPLGAI | failed |
| MADIQGEDLESLYGYAKQLFDGGEIAAARNVYQLLSTLDHWNFDYLLALGLCHQRLGAHNEAVVCFGRAGLIKVDDPRAAFYAGISYRLDGNAEYASKAFKAAINWCGEQIDYQAIKASAVDMLALQQEEVPLEHHHHHH | not failed |
| MAMVSGRRSTLNPDAPLFIPAAVRQVEDFSPEWWQLVTTSTWYPDYWISQQQQGADGFYDNGENENGGGHIDVADLLPESFDFDDMEDFFDTDAAEFDQGFDGRMYYQAPSEFGFGKNGEMVKKSSGNRSPRSIVEPAKYAEKPAKWGNQRVAAAPRNIHQPR | failed |
| MMAIQRVGIIGAGKVGIVLAGLALDAGYTVRISGSGSVKKIALTIKTLVPGAIASENADVVANSDIILLAIPLSRYKNIDADLLKGKLVIDAMNYWWETDGIREEVLDPSTTSSEQVQTYFKDAKIVKAFNHMGYHNLQEEARPKGDPKRKALFVTGNDPEAVATVAAFVDHMGFDTVVHNNLADGIMTEPGSPLFGASLRYAELKDIIDHFDQTEFGKEVAAQTHK | failed |
| MFGLGGEAMIKTQVVKLKVNKTMQKHLDALCDYRRYCWNKGLETWQLMYEAHTLTTKDNPSPNERRVRDELVAGKADWQYDLSARCLQLAIKDLANAWKNFLDKAQPDWGKPRFKSKKAPRQGFKTDRAEIVNGKLRLDKPWSIAKDNWFDLASYEALKMRKVKIASIFKEKGLYYAALTYEENIPAKAKTHKKTAIDVNVGHFNYTDGLINVLPVRLQKLYKRIKHYQRMLARKREINGKLATKTNNYLAVRAKLQRDYRKVVNIQNDLLQKFTTRLVNDYDQIVIEDLAVKEMMMTHVASKGMQRSLFGKFRQILTYKCDWYNKELILASKMYPSTQRCAKCGYVKKGDEKITLQGNQKHGTKHNEYICYRCGYTNDRDENAVLNLLALAK | failed |
| RKFEGMKTVQLICIKMSCIMLFFVSGYAKGTQEEHTMQFGEEKTTYLLHLPKGYIQGKAYSLVVNFHGLGSAAIKHQHYCQLDAVADKEGFIAVYPQSYHQGWNAGLGFTSYIQGHDDIAYFNALLDTLEAAYSIDKNRIYVTGVSLGGSFTYRIACEMSKRIAAIASVSGLMSDSTLIYCTPERSVPVMHIHGTKDHIMRYTGMKQAFGAEEVVRLWALKDQCENKPDTVFVPNTSKKDHTSSILIKYTHCANGSEVWFYKIYNGGHTWPGAAKAFKLMGRKSKDFNG | failed |
| MSNSMLDKNKAILTGGGALLLGLIVLFYLAYRPKAEVLQGFLEAREYSVSSKVPGRIEKVFVKKGDHIKKGDLVFSISSPELEAKLAQAEAGHKAAKALSDEVKRGSRDETINSARDVWQAAKSQATLAKETYKRVQDLYDNGVASLQKRDEAYAAYESTKYNESAAYQKYKMALGGASSESKIAAKAKESAALGQVNEVESYLKDVKATAPIDGEVSNVLLSGGELSPKGFPVVLMIDLKDSWLKISVPEKYLNEFKVGKEFEGYIPALKKSTKFRVKYLSVMGDFATWKATNNSNTYDMKSYEVEAIPLEELENFRVGMSVLVTIKP | failed |
